Measurements published in patent publication US20250129166A1 (Five Prime, published 2025).

Assays:
[1] = biological target: T1, monovalent hVISTA-ECD (amino acids 32-193 of SEQ ID NO: 1 with a 7xHis tail) (human, UniProt Q9H7M9 33-193); assay: SPR, mAb captured on Protein A, hVISTA-ECD analyte, 37 C, pH 6.0
T1 construct: also called huVISTA-His; human VISTA-ECD
Protocol: (§1) Binding kinetics were measured using a Biacore® T100 instrument (GE Healthcare). Protein A (ThermoFisher Scientific catalog #21181) was diluted to 20 μg/ml in 10 mM sodium acetate pH 4.5 and immobilized onto flow cells of a CM5 biosensor following the manufacturer's amine coupling protocol (GE Healthcare), targeting 2,000 RU immobilization density of Protein A per flow cell. The assay was conducted at 37° C. using PBST (137 mM sodium chloride, 2.7 mM potassium chloride, 10 mM phosphate buffer, 0.05% Tween 20) running buffer at pH 7.4, 6.7 and 6.0. Antibodies were diluted to 25 nM in PBST pH 7.4, and were captured across active biosensor flow cells at 5 ul/min for 40 seconds. A concentration series of 100-10 nM monovalent hVISTA-ECD (SEQ ID NO: 325) was prepared in pH 7.4, 6.7 and 6.0 running buffers, and was injected over the captured antibodies at 40 ul/min to measure association and dissociation. Two 15 second injections of 10 mM glycine pH 1.5 were used to regenerate the Protein A capture surface between assay cycles. Rate constants ka (kon) and kd (koff) were derived from reference flow cell and 0 nM blank-subtracted sensorgrams, and were fit to a 1:1 binding model in Biacore® T200 Evaluation Software v.2.0.
(§2) The affinity constant, KD was calculated as the ratio of rate constants koff/kₒₙ for each VISTA antibody. The % Rmax was calculated to compare how pH affects an antibody's binding capacity for VISTA, and represents the measured maximal VISTA binding response relative to the expected maximal VISTA binding response. The % Rmax is defined as the ratio of the reference-subtracted ‘binding’ report point response at the end of the 100 nM VISTA injection for each antibody (Rmax) relative to the expected VISTA binding response (Rexp). Rexp is calculated as Rexp=[(VISTA-ECD molecular weight/mAb molecular weight)×(mAb ‘capture’ report point response (RUs)]×2 binding sites per mAb.

[2] = biological target: T1, monovalent hVISTA-ECD (amino acids …); assay: SPR, mAb captured on Protein A, hVISTA-ECD analyte, 37 C, pH 6.7
Protocol: as §1, §2

[3] = biological target: T1, monovalent hVISTA-ECD (amino acids …); assay: SPR, mAb captured on Protein A, hVISTA-ECD analyte, 37 C, pH 7.4
Protocol: as §1, §2

[4] = biological target: T1, monovalent hVISTA-ECD (amino acids …); assay: SPR, mAb captured on Protein A, hVISTA-ECD analyte, 37 C, pH 6.0; remark: listed apart in the source
Protocol: as §1, §2

[5] = biological target: T1, monovalent hVISTA-ECD (amino acids …); assay: SPR, mAb on Protein A, 37C, pH 6.0
Protocol: (§3) Binding of several preparations of each of the '029 progeny clones and of the parent '029 antibodies, formatted as IgG1.3 antibodies, to human VISTA at pH 6.0 and 7.4 was measured by Surface plasmon resonance (SPR). SPR analysis was performed to measure koff and KD binding affinity measurements for VISTA Abs at acidic and neutral pHs using a Biacore® T100 instrument (GE Healthcare). Protein A (ThermoFisher Scientific catalog #21181) was diluted to 20 μg/ml in 10 mM sodium acetate pH 4.5 and immobilized onto flow cells of a CM5 biosensor following the manufacturer's amine coupling protocol (GE Healthcare), targeting 2,000 RU immobilization density of Protein A per flow cell. SPR experiments were conducted at 37° C. using PBST (137 mM sodium chloride, 2.7 mM potassium chloride, 10 mM phosphate buffer, 0.05% Tween® 20) running buffer at pH 7.4 and 6.0. Antibodies were diluted to 25 nM in PBST pH 7.4, and were captured across active biosensor flow cells at 5 ul/min for 60 seconds. A concentration series of 50-5 nM monovalent hVISTA-ECD (SEQ ID NO: 325) was prepared in pH 7.4 and 6.0 running buffers, and was injected over the captured antibodies at 40 ul/min to measure association and dissociation. Two 15 second injections of 10 mM glycine pH 1.5 were used to regenerate the Protein A capture surface between assay cycles. Rate constants ka (kₒₙ) and kd (koff) were derived from reference flow cell and 0 nM blank-subtracted sensorgrams, and were fit to a 1:1 binding model in Biacore® T200 Evaluation Software v.2.0. The affinity constant, KD was calculated as the ratio of rate constants koff/kₒₙ for each VISTA antibody.

[6] = biological target: T1, monovalent hVISTA-ECD (amino acids …); assay: SPR, mAb on Protein A, 37C, pH 7.4
Protocol: as §3

T1 sequence (Q9H7M9 other isoform, or with tags, fused parts or gaps limits assumed): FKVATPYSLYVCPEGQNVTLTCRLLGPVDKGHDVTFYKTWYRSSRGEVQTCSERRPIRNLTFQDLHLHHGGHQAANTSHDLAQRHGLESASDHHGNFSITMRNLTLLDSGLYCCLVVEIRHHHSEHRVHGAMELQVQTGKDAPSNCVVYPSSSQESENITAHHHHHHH

koff [1] [s⁻¹] | koff [2] [s⁻¹] | koff [3] [s⁻¹] | Binder | other results
0.00071 | 0.00099 | 0.0035 | P1-068761_E30D_E32Y (antibody, human IgG1, kappa, V domains shown, also called P1-070876) VH: EVQLVESGGGLVQPGKSLRLSCAASGFTLDDYAMHWVRQAPGKGLEWVSGINWNSEEIGYADSVKGRFTISRDNAKNSLYLQMNSLRTEDTALYYCAKVPGYSHGWIDAEDVWGQGTMVTVSS VL: not shown | 
 |  |  | P1-068767_E30D_E55A (antibody, human IgG1, kappa, V domains shown, also called P1-070922) VH: EVQLVESGGGLVQPGKSLRLSCAASGFTLDDYAMHWVRQAPGKGLEWVSGIDWNSANIGYADSVKGRFTISRDNAKNSLYLQMNSLRTEDTALYYCAKVPGYSGGWIDAEDDWGQGTMVTVSS VL: not shown | koff [4]: 0.0035 s⁻¹
0.00057 | 0.0006 | 0.0027 | P1-068761_E32Y_E55A (antibody, human IgG1, kappa, V domains shown, also called P1-070882) VH: EVQLVESGGGLVQPGKSLRLSCAASGFTLEDYAMHWVRQAPGKGLEWVSGINWNSAEIGYADSVKGRFTISRDNAKNSLYLQMNSLRTEDTALYYCAKVPGYSHGWIDAEDVWGQGTMVTVSS VL: not shown | 
0.00092 | 0.0013 | 0.0055 | P1-068761_E32Y_H100G (antibody, human IgG1, kappa, V domains shown, also called P1-070886) VH: EVQLVESGGGLVQPGKSLRLSCAASGFTLEDYAMHWVRQAPGKGLEWVSGINWNSEEIGYADSVKGRFTISRDNAKNSLYLQMNSLRTEDTALYYCAKVPGYSGGWIDAEDVWGQGTMVTVSS VL: not shown | 
0.00038 | 0.00061 | 0.003 | P1-068761_E56N_E100fF (antibody, human IgG1, kappa, V domains shown, also called P1-070902) VH: EVQLVESGGGLVQPGKSLRLSCAASGFTLEDEAMHWVRQAPGKGLEWVSGINWNSENIGYADSVKGRFTISRDNAKNSLYLQMNSLRTEDTALYYCAKVPGYSHGWIDAFDVWGQGTMVTVSS VL: not shown | 
 |  |  | P1-068767_E55A_E100fF (antibody, human IgG1, kappa, V domains shown, also called P1-070918) VH: EVQLVESGGGLVQPGKSLRLSCAASGFTLEDYAMHWVRQAPGKGLEWVSGIDWNSANIGYADSVKGRFTISRDNAKNSLYLQMNSLRTEDTALYYCAKVPGYSGGWIDAFDDWGQGTMVTVSS VL: not shown | koff [4]: 0.013 s⁻¹
 |  |  | P1-071757 (P1-061029_HC_K16R_T84A, FW revertant) (antibody, V domains shown, VH/VL only) VH: EVQLVESGGGLVQPGRSLRLSCAASGFTLDDYAMHWVRQAPGKGLEWVSGINWNSANIGYADSVKGRFTISRDNAKNSLYLQMNSLRAEDTALYYCAKVPGYSGGWIDAFDVWGQGTMVTVSS VL: not shown | Kd [5]: 7.3 nM; koff [5]: 0.0059 s⁻¹; kon [5]: 810000 M⁻¹ s⁻¹; Kd [6]: 45 nM; koff [6]: 0.0059 s⁻¹; kon [6]: 130000 M⁻¹ s⁻¹
0.00018 | 0.00028 | 0.0017 | P1-068761_E55A_E100fF (antibody, human IgG1, kappa, V domains shown, also called P1-070898) VH: EVQLVESGGGLVQPGKSLRLSCAASGFTLEDEAMHWVRQAPGKGLEWVSGINWNSAEIGYADSVKGRFTISRDNAKNSLYLQMNSLRTEDTALYYCAKVPGYSHGWIDAFDVWGQGTMVTVSS VL: not shown | 
0.00041 | 0.00064 | 0.0025 | P1-068761_E32Y (antibody, human IgG1, kappa, V domains shown, also called P1-070866) VH: EVQLVESGGGLVQPGKSLRLSCAASGFTLEDYAMHWVRQAPGKGLEWVSGINWNSEEIGYADSVKGRFTISRDNAKNSLYLQMNSLRTEDTALYYCAKVPGYSHGWIDAEDVWGQGTMVTVSS VL: not shown | 
 |  |  | P1-071759 (P1-061029_HC_K16R, FW revertant) (antibody, V domains shown, VH/VL only) VH: EVQLVESGGGLVQPGRSLRLSCAASGFTLDDYAMHWVRQAPGKGLEWVSGINWNSANIGYADSVKGRFTISRDNAKNSLYLQMNSLRTEDTALYYCAKVPGYSGGWIDAFDVWGQGTMVTVSS VL: not shown | Kd [5]: 7.4 nM; koff [5]: 0.0059 s⁻¹; kon [5]: 800000 M⁻¹ s⁻¹; Kd [6]: 46 nM; koff [6]: 0.006 s⁻¹; kon [6]: 130000 M⁻¹ s⁻¹
 |  |  | P1-068767_E30D (antibody, human IgG1, kappa, V domains shown, also called P1-070904) VH: EVQLVESGGGLVQPGKSLRLSCAASGFTLDDYAMHWVRQAPGKGLEWVSGIDWNSENIGYADSVKGRFTISRDNAKNSLYLQMNSLRTEDTALYYCAKVPGYSGGWIDAEDDWGQGTMVTVSS VL: not shown | koff [4]: 0.0032 s⁻¹
 |  |  | P1-071761 (P1-061029_HC_T84A, FW revertant) (antibody, V domains shown, VH/VL only) VH: EVQLVESGGGLVQPGKSLRLSCAASGFTLDDYAMHWVRQAPGKGLEWVSGINWNSANIGYADSVKGRFTISRDNAKNSLYLQMNSLRAEDTALYYCAKVPGYSGGWIDAFDVWGQGTMVTVSS VL: not shown | Kd [5]: 6.9 nM; koff [5]: 0.006 s⁻¹; kon [5]: 870000 M⁻¹ s⁻¹; Kd [6]: 40 nM; koff [6]: 0.006 s⁻¹; kon [6]: 150000 M⁻¹ s⁻¹
 |  |  | P1-068767_E30D_D52N (antibody, human IgG1, kappa, V domains shown, also called P1-070914) VH: EVQLVESGGGLVQPGKSLRLSCAASGFTLDDYAMHWVRQAPGKGLEWVSGINWNSENIGYADSVKGRFTISRDNAKNSLYLQMNSLRTEDTALYYCAKVPGYSGGWIDAEDDWGQGTMVTVSS VL: not shown | koff [4]: 0.0023 s⁻¹
0.00021 | 0.0004 | 0.0023 | P1-068761_H100G_E100fF (antibody, human IgG1, kappa, V domains shown, also called P1-070880) VH: EVQLVESGGGLVQPGKSLRLSCAASGFTLEDEAMHWVRQAPGKGLEWVSGINWNSEEIGYADSVKGRFTISRDNAKNSLYLQMNSLRTEDTALYYCAKVPGYSGGWIDAFDVWGQGTMVTVSS VL: not shown | 
0.0007 | 0.00083 | 0.0032 | P1-068761_E32Y_E56N (antibody, human IgG1, kappa, V domains shown, also called P1-070884) VH: EVQLVESGGGLVQPGKSLRLSCAASGFTLEDYAMHWVRQAPGKGLEWVSGINWNSENIGYADSVKGRFTISRDNAKNSLYLQMNSLRTEDTALYYCAKVPGYSHGWIDAEDVWGQGTMVTVSS VL: not shown | 
0.00033 | 0.00057 | 0.0035 | P1-068761_E30D_E100fF (antibody, human IgG1, kappa, V domains shown, also called P1-070896) VH: EVQLVESGGGLVQPGKSLRLSCAASGFTLDDEAMHWVRQAPGKGLEWVSGINWNSEEIGYADSVKGRFTISRDNAKNSLYLQMNSLRTEDTALYYCAKVPGYSHGWIDAFDVWGQGTMVTVSS VL: not shown | 
0.00013 | 0.00022 | 0.0013 | P1-068761_E100fF (antibody, human IgG1, kappa, V domains shown, also called P1-070874) VH: EVQLVESGGGLVQPGKSLRLSCAASGFTLEDEAMHWVRQAPGKGLEWVSGINWNSEEIGYADSVKGRFTISRDNAKNSLYLQMNSLRTEDTALYYCAKVPGYSHGWIDAFDVWGQGTMVTVSS VL: not shown | 
0.0011 | 0.00095 | 0.0019 | P1-068761_E32Y_E100fF (antibody, human IgG1, kappa, V domains shown, also called P1-070888) VH: EVQLVESGGGLVQPGKSLRLSCAASGFTLEDYAMHWVRQAPGKGLEWVSGINWNSEEIGYADSVKGRFTISRDNAKNSLYLQMNSLRTEDTALYYCAKVPGYSHGWIDAFDVWGQGTMVTVSS VL: not shown | 
 |  |  | P1-068767_D52N_E100fF (antibody, human IgG1, kappa, V domains shown, also called P1-070928) VH: EVQLVESGGGLVQPGKSLRLSCAASGFTLEDYAMHWVRQAPGKGLEWVSGINWNSENIGYADSVKGRFTISRDNAKNSLYLQMNSLRTEDTALYYCAKVPGYSGGWIDAFDDWGQGTMVTVSS VL: not shown | koff [4]: 0.066 s⁻¹
